Experimental findings from patent US20220340657A1 are described below.

Assay [1] concerns the target cyno-LAG3-hFc (cynomolgus monkey). Briefly: ELISA.
Assay [2] has the same target. Briefly: Biacore. On the technique in general: SPR reads the build-up and loss of mass on a sensor chip optically.

pEC50, pKd: −log10 of the molar value.

For “positive control antibody Ref (BMS-986016)”, the pEC50 (commonly the EC50 on a negative log10 scale, so that one unit is a factor of ten) in assay [1] is 7.45. In addition, in assay [2], the pKd (as a rule, the Kd on a negative log10 scale, so that one unit is a factor of ten) was 6.08.
